{
  "source": "patent US20260103629A1",
  "about": "(YALE UNIVERSITY, published 2026)",
  "target": "T1, asialofetuin (Sigma-Aldrich A4781), coated on glass (UniProt P12763 19-359, an extensively glycosylated protein (so in the source))",
  "T1 construct": "also called asialofetuin-coated surface",
  "T1 sequence": "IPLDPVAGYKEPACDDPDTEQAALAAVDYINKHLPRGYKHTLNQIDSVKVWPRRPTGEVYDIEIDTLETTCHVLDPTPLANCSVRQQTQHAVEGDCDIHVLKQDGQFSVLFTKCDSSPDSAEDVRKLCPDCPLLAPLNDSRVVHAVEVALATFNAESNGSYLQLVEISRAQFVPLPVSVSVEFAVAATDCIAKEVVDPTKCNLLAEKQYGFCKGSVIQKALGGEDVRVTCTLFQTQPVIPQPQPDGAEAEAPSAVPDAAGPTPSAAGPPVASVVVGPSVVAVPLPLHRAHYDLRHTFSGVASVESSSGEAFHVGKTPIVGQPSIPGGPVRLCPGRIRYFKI",
  "assay": "in situ anti-FLAG immunostaining of biofilms grown on asialofetuin-coated glass",
  "data": [
    {"binder": "Bap1 (Biofilm-Associated Protein 1 of V. cholerae, wild type), tagged with 3xFLAG at the C-terminus (other, also called VC1888; WT Bap1; not shown: C-terminal 3xFLAG tag) SSSSDIQTKLKWSWSTSVFHPESNQVMAAPIVVQLNDDNGDGKIDEKDVADIIVVTFEGNKYANGGYIRALSGVDGSELWSYSNGGVIADARYAPAAADLDGDGLIEIVSTSALTPYINILDHQGNIKKQLLKSASGWRSVGDIALADINGDGNIEILAADGVYSYESGLLFSHDWAPSSIAFDSNGDGQREVFANGTLYQNNGAYLWQYQANDTVWFSSVANLDGDDKPELVVSVPASLSTPENSEIAVLEHDGSVKWRVNNLSNPGGSVQAVSSFLGKPSSSATTVDAQSAVYGYTDWAHQQRVLAENHQLAIRSGAVVDAIGANSQNMIGGSGGSLSTIDTSKVRAIDVTYGKNKYTWKYGVLEMSFTLDNGAKVTVGSKDSAFTYLGLEWKTKTVPYLGVEWRTKTVSYWFFGWHTKQVAYLAPVWKEKTIPYAVPVTLSKSTTVRYDIPQGSQLLGMNVWSKEKHLFKHKQQVNAVQFLVGKVTADQSHMGIVYAGYYAVDMYDAQGNKVWSVANDDLNSGKIGVSAYDFTGDGIDEVLVQDRLRMRILDGQTGRVMGIIANSSGTLWEYPVVADLEGNNNASLIMVANDYDRESQVNHGVFVYESANPSKPWRNATRIWNQYAFNFSDINANGTIPTNAQPSWLTHNSFRSATIRVPLK", "values": [
      {"measurement": "binding result", "value": "no binding"}
    ]}
  ]
}
